Measurements from paper PMC10144703, “Molecular Mechanism of Sirtuin 1 Inhibition by Human Immunodeficiency Virus 1 Tat Protein” (Life, 2023).

Target: human full-length Sirt1 (human) (UniProt Q96EB6)
Sequence (Q96EB6 whole entry): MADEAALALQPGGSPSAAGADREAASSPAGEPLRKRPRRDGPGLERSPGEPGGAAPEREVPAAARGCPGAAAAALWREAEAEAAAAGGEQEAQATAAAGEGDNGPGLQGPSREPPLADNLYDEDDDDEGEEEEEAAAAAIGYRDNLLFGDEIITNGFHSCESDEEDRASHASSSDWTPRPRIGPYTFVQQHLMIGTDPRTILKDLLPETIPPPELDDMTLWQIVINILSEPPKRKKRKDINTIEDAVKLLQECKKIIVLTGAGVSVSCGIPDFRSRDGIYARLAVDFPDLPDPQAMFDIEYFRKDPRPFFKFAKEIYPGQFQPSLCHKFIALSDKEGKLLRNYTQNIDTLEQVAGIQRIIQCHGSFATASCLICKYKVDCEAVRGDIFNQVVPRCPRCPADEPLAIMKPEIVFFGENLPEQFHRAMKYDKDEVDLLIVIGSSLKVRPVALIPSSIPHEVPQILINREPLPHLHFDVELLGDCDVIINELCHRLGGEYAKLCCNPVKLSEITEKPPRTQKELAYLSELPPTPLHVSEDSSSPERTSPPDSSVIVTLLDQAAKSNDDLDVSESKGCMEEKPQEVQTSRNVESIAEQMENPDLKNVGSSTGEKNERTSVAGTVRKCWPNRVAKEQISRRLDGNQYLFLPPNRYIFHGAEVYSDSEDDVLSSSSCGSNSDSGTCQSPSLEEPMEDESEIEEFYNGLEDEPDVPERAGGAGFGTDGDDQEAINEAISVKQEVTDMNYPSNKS

Substance	inhibition of fl-Sirt1 in the FdL assay at 100 µM FdL-1; IC50	inhibition of fl-Sirt1 in the FdL assay at 100 µM FdL-1; potency (IC50)
Tat-Cys^−-(1–63) (from UniProt P12506 1-63) (domain or fragment)	10 µM	–
Tat-Cys^−-(21–63) (from UniProt P12506 21-63) (domain or fragment)	–	30 µM
